In the test the target is T1, Bal gp120-CD4 (HIV-1 (Bal isolate)).
T1 construct: domain: gp120;domain: two-domain CD4; also called gp120Bal-CD4; panning antigen; not shown: junction or linker between gp120 and CD4 is not described
Briefly: ELISA, antigen coated, purified refolded nAb, anti-His-HRP. (In general: ELISA stands for enzyme-linked immunosorbent assay.)

B1: m1a2 (designed binder)
chain: APELLGGPSVFLFPPKPKDTLMISRTPEVTCVVVDYDYDSYYDGKFNWYVDGVEVHNAKTKPREEQYNSTYRVVSVLTVLHQDWLNGKEYKCKVSNDDYAADGPIEKTISKAK
notes: also called CH2 clone m1a2; nAb m1a2; not shown: C-terminal His tag used for detection
As usually defined, the EC50 is the concentration that produces a half-maximal response. A low value points to an effect from little substance. As for B1, the EC50 amounted to 500 nM. This lies in the sub-micromolar range.

B2: m1a1 (designed binder)
chain: APELLGGPSVFLFPPKPKDTLMISRTPEVTCVVVDYDYDSYFDFGKFNWYVDGVEVHNAKTKPREEQYNSTYRVVSVLTVLHQDWLNGKEYKCKVSNSDSAASGPIEKTISKAK
notes: also called CH2 clone m1a1; nAb m1a1; not shown: C-terminal His tag used for detection
Take B2: the EC50 turned out to be 500 nM.

These data come from patent publication US20100316641A1 (US Dept. of Health and Human Services, published 2010).
